B1: PD-L1 binding agent 10 (antibody, V domains shown)
VH: QVQLVQSGAEVKKPGASVKVSCKASGYTFTGYYMHWVRQAPGQGLEWIGWMSLNSGLTGYAQKFQGRVTMTRDTSTSTVYMELSSLRSEDTAVYYCARDRGWFDPWGQGTLVTVSS
VL: DIQMTQSPSSLSASVGDRVTITCRASQSISSWLAWYQQKPGKAPKLLIYAASTLESGVPSRFSGSGSGTDFTLTISSLQPEDFATYYCQQSYTTPYSFGGGTKVEIK
B2: PD-L1 binding agent 21 (antibody, V domains shown)
VH: QVQLVQSGAEVKKPGASVKVSCKASGYTFTSHYMHWVRQAPGQGLEWMGWMNPNSGHTGNAQKFQGRVTMTRDTSTSTVYMELSSLRSEDTAVYYCARGNWVDAFDIWGQGTMVTVSS
VL: DIQMTQSPSSLSASVGDRVTITCRASQGIRNDLAWYQQKPGKAPKLLIYAASTLQSGVPSRFSGSGSGTDFTLTISSLQPEDFATYYCQQSYSTPLTFGGGTKVEIK
B3: 70 (antibody, V domains shown)
VH: QVQLVQSGAEVKKPGASVKVSCKASGYTFTDHYLHWVRQAPGQGLEWMGWINPNIGNTGYAQKFQGRVTMTRDTSTSTVYMELSSLRSEDTAVYYCAREPLQLGGFDYWGQGTLVTVSS
VL: DIQMTQSPSSLSASVGDRVTITCRASESISSWLAWYQQKPGKAPKLLIYAASSLQSGVPSRFSGSGSGTDFTLTISSLQPEDFATYYCQQSYSTPLTFGQGTKLEIK
B4: 35 (antibody, V domains shown)
VH: QVQLVQSGAEVKKPGASVKVSCKASGYPFSSYYMHWVRQAPGQGLEWMGMINPSGGSTSYAQKFQGRVTMTRDTSTSTVYMELSSLRSEDTAVYYCARDIFPTMIAGGGFDLWGRGTLVTVSS
VL: DIQMTQSPSSLSASVGDRVTITCRASQSISSWLAWYQQKPGKAPKLLIYDASNLETGVPSRFSGSGSGTDFTLTISSLQPEDFATYYCQQSYSTPPTFGQGTKVEIK
B5: 32 (antibody, V domains shown)
VH: QVQLVQSGAEVKKPGASVKVSCKASGYTFTSYYMHWVRQAPGQGLEWMGWMNPNSGHTGYAQKFQGRVTMTRDTSTSTVYMELSSLRSEDTAVYYCAREDFYGDFDYWGQGTLVTVSS
VL: DIQMTQSPSSLSASVGDRVTITCRASQGISRYLAWYQQKPGKAPKLLIYAASTLQSGVPSRFSGSGSGTDFTLTISSLQPEDFATYYCQQSYSTPLTFGQGTKVEIK
B6: 5 (antibody, V domains shown)
VH: QVQLVQSGAEVKKPGASVKVSCKASGYTFNRFMHWVRQAPGQGLEWMGWMSLNSGLTGYAQKFQGRVTMTRDTSTSTVYMELSSLRSEDTAVYYCTRGTYNDAFDIWGQGTLVTVSS
VL: DIQMTQSPSSLSASVGDRVTITCRASQTISNYLNWYQQKPGKAPKLLIYAASSLQSGVPSRFSGSGSGTDFTLTISSLQPEDFATYYCQQSYTTPITFGGGTKVEIK
B7: 4 (antibody, V domains shown)
VH: QVQLVQSGAEVKKPGASVKVSCKASGYTFTSHHMHWVRQAPGQGLEWMGWVSPSHGLTGYAQKFQGRVTMTRDTSTSTVYMELSSLRSEDTAVYYCARDNWNVHDAFDIWGQGTLVTVSS
VL: DIQMTQSPSSLSASVGDRVTITCRASQGISSYLAWYQQKPGKAPKLLIYGASNLQSGVPSRFSGSGSGTDFTLTISSLQPEDFATYYCQQSYSTPLTFGGGTKVEIK
B8: 67 (antibody, V domains shown)
VH: QVQLVQSGAEVKKPGASVKVSCKASGYTFSTHYMHWVRQAPGQGLEWMGWINPNSGHAGSAQKFQGRVTMTRDTSTSTVYMELSSLRSEDTAVYYCARESIAVAGYDYWGQGTLVTVSS
VL: DIQMTQSPSSLSASVGDRVTITCRASQSISSWLAWYQQKPGKAPKLLIYAASTLQRGVPSRFSGSGSGTDFTLTISSLQPEDFATYYCQQSYSTPYTFGQGTKLEIK
B9: 68 (antibody, V domains shown)
VH: QVQLVQSGAEVKKPGASVKVSCKASGYTFTGYYMHWVRQAPGQGLEWMGWINPNSGTTGYAQNFQGRVTMTRDTSTSTVYMELSSLRSEDTAVYYCAREGFGPNAFDIWGQGTTVTVSS
VL: DIQMTQSPSSLSASVGDRVTITCRASQSISSWLAWYQQKPGKAPKLLIYAASNLQSGVPSRFSGSGSGTDFTLTISSLQPEDFATYYCQQYYSTPYTFGQGTKVEIK
B10: 66 (antibody, V domains shown)
VH: QVQLVQSGAEVKKPGASVKVSCKASGYTFSSYYMHWVRQAPGQGLEWMGWITTNSGITGYAQKFQGRVTMTRDTSTSTVYMELSSLRSEDTAVYYCAREGYSSGLDYWGQGTLVTVSS
VL: not shown
B11: 33 (antibody, V domains shown)
VH: QVQLVQSGAEVKKPGASVKVSCKASGYTFTRHFIHWVRQAPGQGLEWMGWIDPNSGVTSSAQKFQGRVTMTRDTSTSTVYMELSSLRSEDTAVYYCARELSRWGFDYWGPGTMVTVSS
VL: EIVMTQSPATLSVSPGERATLSCRASQTVSSNYLAWYQQKPGQAPRLLIYGASTRASGIPARFSGSGSGTEFTLTISSLQSEDFAVYYCQQYYTTPLTFGGGTKVEIK
B12: 6 (antibody, V domains shown)
VH: QVQLVQSGAEVKKPGASVKVSCKASGYTFTSYYIHWVRQAPGQGLEWMGWMKPSSGTTGYAQKFQGRVTMTRDTSTSTVYMELSSLRSEDTAVYYCAREQWLVNDAFDIWGQGTLVTVSS
VL: EIVMTQSPATLSVSPGERATLSCRASQSVDRNYVTWYQQKPGQAPRLLIYGASTRATGIPARFSGSGSGTEFTLTISSLQSEDFAVYYCQQSYTTPYTFGQGTKVEIK
B13: 34 (antibody, V domains shown)
VH: QVQLVQSGAEVKKPGASVKVSCKASGYTFTRHLLHWVRQAPGQGLEWMGWISPQHGVRNYAHKFQGRVTMTRDTSTSTVYMELSSLRSEDTAVYYCARESVEGYFDLWGRGTLVTVSS
VL: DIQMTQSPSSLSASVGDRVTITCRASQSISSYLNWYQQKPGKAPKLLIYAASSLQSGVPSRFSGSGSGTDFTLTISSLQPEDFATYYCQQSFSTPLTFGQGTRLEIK
B14: 69 (antibody, V domains shown)
VH: QVQLVQSGAEVKKPGASVKVSCKASGYTFTSYYMHWVRQAPGQGLEWMGWINPNSGNTGYAQKFQGRVTMTRDTSTSTVYMELSSLRSEDTAVYYCARDDWGGDWFDYWGQGTLVTVSS
VL: DIQMTQSPSSLSASVGDRVTITCQASQDISNHLNWYQQKPGKAPKLLIYGASNLQRGVPSRFSGSGSGTDFTLTISSLQPEDFATYYCQQSYSTPITFGQGTRLEIK
B15: 37 (antibody, V domains shown)
VH: QVQLVQSGAEVKKPGASVKVSCKASGYTFTSYGINWVRQAPGQGLEWMGWMNPNSGNTGYAQKFQGRVTMTRDTSTSTVYMELSSLRSEDTAVYYCARGSFPLVFTIFGVGDVWGQGTMVTVSS
VL: DIQMTQSPSSLSASVGDRVTITCRSSQGIRNDLSWYQQKPGKAPKLLIYLASNSHSGVPSRFSGSGSGTDFTLTISSLQPEDFATYYCLQHNSYPLTFGGGTKVEIK

We go through 15 molecules from patent publication US20230086603A1 (BOLT BIOTHERAPEUTICS, published 2023).

T1 sequence (Q9NZQ7 19-290 limits assumed): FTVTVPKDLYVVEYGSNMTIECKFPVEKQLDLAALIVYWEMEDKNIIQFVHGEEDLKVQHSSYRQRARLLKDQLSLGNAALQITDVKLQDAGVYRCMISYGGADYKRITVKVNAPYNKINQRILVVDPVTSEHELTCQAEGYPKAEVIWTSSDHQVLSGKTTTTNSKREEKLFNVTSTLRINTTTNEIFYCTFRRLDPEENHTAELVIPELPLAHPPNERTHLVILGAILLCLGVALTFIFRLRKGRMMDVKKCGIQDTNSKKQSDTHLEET

One test deals with PD-L1 on CHO-K1/PD-L1/alphaAPC stimulator cells (UniProt Q9NZQ7 19-290, limits assumed). The experiment in a line: cell-based or functional assay.
PD-L1 on CHO-K1/PD-L1/alphaAPC stimulator cells, sequence (Q9NZQ7 19-290 limits assumed): as above
In the case of B1, the “EC50 (nM), PD-L1/PD-1 blockade, luciferase reporter cells” value was determined as 2.02 nM and the “EC50 (ng/ml), PD-L1/PD-1 blockade, luciferase reporter cells” value was determined as 291 ng/mL. Consider B2, for which the “EC50 (nM), PD-L1/PD-1 blockade, luciferase reporter cells” value is 0.9 nM and the “EC50 (ng/ml), PD-L1/PD-1 blockade, luciferase reporter cells” value was 129 ng/mL.

A further test concerns the target T1, human PD-L1 (hPD-L1) (human, UniProt Q9NZQ7 19-290).
T1 construct: Endogenous hPD-L1 on JIMT1 (JIMT-1) cells; also called programmed death-ligand 1; CD274
The experiment in a line: flow cytometry on JIMT-1 cells expressing endogenous human PD-L1; anti-human IgG Fc secondary; geometric MFI. Here is the method: Binding of the binding agents of an embodiment of the invention to human PD-L1 (hPD-L1) on cell surfaces was assessed by incubating the binding agents with JIMT1 cells that express endogenous hPD-L1. Briefly, the binding agents were diluted serially in FACS buffer (PBS+1% FBS+5 mM EDTA, pH 7.4) at 4° C. Diluted binding agents were applied to JIMT1 cells (˜1×10⁵-2×10⁵ per well) and incubated at 4° C. […] After unbound secondary antibody was washed out, cells were resuspended in FACS buffer plus 2% formaldehyde and analyzed by flow cytometry. The intensity of fluorescence, expressed as geometric mean fluorescence intensity, was used to determine anti-PDL1 binding agent binding to hPD-L1 on cell surface.
(Flow cytometry measures light scatter and fluorescence of single cells or particles in a stream.)
As to B3, the binding result was “binds”.

Regarding B4, the binding result is given as “binds”. Take B5: the binding result is recorded as “binds”. Take B6: the binding result was “binds”. Turning to B7, the binding result is “binds”. Consider B8, for which the binding result is listed as “binds”.

For B9, the binding result is on record as “binds”. As to B10, the binding result is “binds”.

For B11, the binding result is given as “binds”. For B12, the binding result is on record as “binds”. Consider B13, for which the binding result is on record as “binds”. Turning to B14, the binding result was “binds”. Still for that read-out and setting: under B15 stands “binds”.
